Measurements from PMC7654431.

Target: T7 DNA polymerase gp5;thioredoxin (trx) (bacteriophage T7;Escherichia coli, UniProt P00581;P0AA25 1-704;2-109, |)
Assay: SEC-SAXS-MALS

Chain of T7 DNA polymerase gp5;thioredoxin (trx) (P00581 whole entry, chain 1 of 2): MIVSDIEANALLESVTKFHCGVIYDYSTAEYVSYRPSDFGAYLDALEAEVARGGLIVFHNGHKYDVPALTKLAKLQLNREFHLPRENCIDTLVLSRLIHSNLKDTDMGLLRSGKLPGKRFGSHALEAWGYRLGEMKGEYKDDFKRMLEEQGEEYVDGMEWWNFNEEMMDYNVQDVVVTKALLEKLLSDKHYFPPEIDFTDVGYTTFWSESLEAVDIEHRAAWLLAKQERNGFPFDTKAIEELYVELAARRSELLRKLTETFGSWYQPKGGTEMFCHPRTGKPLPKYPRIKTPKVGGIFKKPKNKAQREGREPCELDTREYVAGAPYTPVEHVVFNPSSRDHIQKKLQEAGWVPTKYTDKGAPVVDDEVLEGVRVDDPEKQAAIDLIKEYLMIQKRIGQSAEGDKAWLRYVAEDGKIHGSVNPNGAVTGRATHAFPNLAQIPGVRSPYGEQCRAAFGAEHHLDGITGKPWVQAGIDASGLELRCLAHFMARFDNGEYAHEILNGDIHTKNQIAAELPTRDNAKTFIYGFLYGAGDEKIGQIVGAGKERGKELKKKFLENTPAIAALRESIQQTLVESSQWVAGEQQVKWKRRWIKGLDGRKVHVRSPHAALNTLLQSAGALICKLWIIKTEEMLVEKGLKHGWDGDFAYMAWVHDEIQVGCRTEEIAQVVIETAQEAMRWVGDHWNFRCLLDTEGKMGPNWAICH
Chain of T7 DNA polymerase gp5;thioredoxin (trx) (P0AA25 2-109, chain 2 of 2): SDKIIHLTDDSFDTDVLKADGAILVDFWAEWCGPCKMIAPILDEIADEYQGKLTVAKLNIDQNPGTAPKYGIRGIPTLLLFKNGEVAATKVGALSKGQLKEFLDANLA

B1: SAXS primer/template (dsDNA)
DNA 1: TGGCAGGCAGGTGGTCTTGCCGGTC
DNA 2: GATCCCTCGACCGGCAAGACCACCTGCCTGCCA
modifications: 3'-terminal ddC on primer
binding result: binds
